Results as given in the DeepSol protein solubility set.

experiment: soluble on expression in E. coli; label from the status in PepcDB or PDB records

Row | Sequence | soluble on expression in E. coli
1 | MTLSKRLALLGAQSAITLAKPRGLGSSLGLLDRRPFPYRQFSELTKANGRRAFLVDTLALVRSLEAQGVPSKQAEAITSAITEVLNDSLENVSESFVSKAEMQKIEMIQDSNLSKFKSEVKSSQEHHFTVLQRETEKLRGDIEKMRSELRYEIDKVTAGQRLDLNLERGRIRDELANQNTETTNLTNKLDREIHALRAQLEASKYEVIKYCIGTLVSISAVGLAVLRIMI | not soluble
2 | MTLTRKTLFLLTAAFGTHSLQTASADAVVKAEKLHASANRSYKVAGKRYTPKNQVAEFTQTGNASWYGGRFHGRKTSGGERYDMNAFTAAHKTLPIPSYVRVTNTKNGKSVIVRVNDRGPFHGNRIIDVSKAAAQKLGFVNQGTAHVKIEQIVPGQSAPVAENKDIFIDLKSFGTEHEAQAYLNQAAQNFAVSSSGTNLSVEKRRYEYVVKMGPFTSQERAAEAEAQARGMVRAVLTAG | not soluble
3 | MTMDKSELVQKAKLAEQAERYDDMAAAMKAVTEQGHELSNEERNLLSVAYKNVVGARRSSWRVISSIEQKTERNEKKQQMGKEYREKIEAELQDICNDVLELLDKYLIPNATQPESKVFYLKMKGDYFRYLSEVASGDNKQTTVSNSQQAYQEAFEISKKEMQPTHPIRLGLALNFSVFYYEILNSPEKACSLAKTAFDEAIAELDTLNEESYKDSTLIMQLLRDNLTLWTSENQGDEGENLYFQ | soluble
4 | MTMHREPGGERYYYTWAWFEGPDDAAWRVTGHHTDSGEQYRLDWNLAERSLCVTDSLGRTRCHWWDAQGLVTAYRDEAGQMTTFRWSDEERLLLGMTDAQGGKWRYVYDRLGHLTETHDPLGRVEQTQWHPVWHQPETEVDAAGAAWRYEYDERGNLQAVSDPLHQRTVYGYDRHGQVVRITDARGGDKYLQWNEDGQLMRHTDCSGSQTAWFYDERTRLERVTDAESNSTRYSYDGNGHLTEVMFADGRTERYQPDAAGRLVKYTSPAGQITRWQRDGQGRVRRQTDATGRRTAYEYDAYGRLTTLTNENGESYRFRYDVLDRLTEQTDPGGSRRAYGYNALNAVTAVIYGGERGGEIRHGLERDAAGRLTAKTTPETRTEYRYDAADRLLEIRRRRHDAAEGGEPEVIRFSYDSAGNLLSEETAQGVLQHRYDVQGNRTETQMPDGRTLRYLYYGSGHLQQINLGRDVISEFTRDHLHREVQRSQGRLDTRRMYDRTGRLTRKPTCKGMRGVVPETFIDREYAYSGQDELLKKRHSRQGVTDYFYDTTGRITACRNEAYLDSWQYDAAANLLDRRQGETAQAGAGSVVPFNRITSYRGLHYRYDEYGRVVEKRGRNGTQHYRWDAEHRLTEVAVIRGSTVRRYGYVYDAPGRRVEKHELDAEGKPYNRTTFLWDGMRLAQECRLGRSSSLYIYSDQGSHEPLARVDRAAPGEADEVLYYHTDVNGAPEEMTDGRGNIVWEAGYQVWGNLTHEKETRPVQQNLRFQGQYLDRETGLHYNLYRFYDPDIGKFISGDPISIRGGINLYQYAPNPIKWIDPLGLYNGEGQRELGKYHVFHEHNLDITEYGLSDAEHFSRGNQAIYERMKNDPAFRREMQTKYPGVVEHVQPSSGGKFSTESPPGLTWHHENKPGVLSLVDRLDHKTYLEHHHHHH | not soluble
5 | MTMIKKIETELLAAKATLSEISGRFKEFSDTQARLSADGDLLGLARLNKEHTGLEDSLLAADDTVRALESRLSVLRQAEYRPQFDKAHKTHLGAVQAETKAAEKLLAAIDAVFSAATDMQNLSDEVAATYHAARDLHNRAGLDHELRWPAPDGQIPIKISDRMNSLRDELVRTIRLYEDRLPQSQSLEGLRIIEQQQEELVRNSGRGFR | soluble
6 | MTMKMSGTEIQKHFKTLKGTIAITSIEDGDGSHVVWTFDFEKVHKDIDDSHSIIDETVKYLKELDEVLLKFHE | soluble
7 | MTNAKPENALAAIGIARKELDADRYILISSDLVYTPSNDPKAEDSRTEPITDEGRIFLTAESLMNQERDAIFRTGFIIGLCSVNLYTNVLNMVRSGMRLSLSKSTIRNFIRNADLSSFIMRSIERNISGVYNVASDASTAYDFAKRLCDMAGLKCTLEDSGEDLGNYTMDTSRSLKTFGMRPMSVFEGYTISGSFDLR | not soluble
8 | MTNGFPILRLPSKPLRSILQTMKFVELVSISFTSKVAKRHVKALNMKVSYINMFLSRLTIRLVVNFNGTLPLNFRIPDRNVSEPRKLNKKLNYMKVKEGPIFEETEVFEWKPSGIRFKEIANHVLEIFHKSEFSTLMISHDYDYKTMLQELKDFKIRKLCISSDRIQNSELRRNLLEKYSRQFRELALDYHSLKPQEFHLIVSISYNNCYLYKVPMKLEDLLVSNIFLMCIDKPCPLKQLCLFLKHWINGSNDRLEYLEMNLPANSTKTQFISIALNGIDYQLASTDKEWESANNGLIKTTVVKTGGFDIRQNDGTIATVTVDETFQKLRMFVWK | not soluble
9 | MTNKKKEITIHSSAAEYLTYVASTGRNSDSFEMRYEDENIWLTQKMMATLYDVSVSAINQHLKRIFEDDELVEESVIKKYLITASDGKSYSTKHYNLQAIIAVGFKVNNDRAVRFRKWAGQIVKDYTIQGWTMDKERLKKGHMFTDEYFERQLENIREIRLSERKFYQKVTDLYATAFDYDKDAKTTRQFFKMVQNKMHWAVHRHTAAELIVERANAEKEHMGLTTWESAPDGKIVKADVTVAKNYLSEKEMSYLQRIVSLYLDYAELQAERRIPMSMEDWAKRLDGFLEFNGNELLMGLGKVSAEQAKLHAETEFEKYRIVQDRLFMSDYDKYLIELEHQADQSDV | not soluble
10 | MTNTTMQPNRLRIALQKKGRLSQDCAILLKQCGVKINWNEQRLIAYAENLPIEILRVRDDDIPGLIFDGVVDLGIIGENVLEEEELGRRAANETVTYKKLRQLDFGDCRLSLAVDRDCHYENVKDLANRRIATSYPHLLKRYMNENGVSFKSCLLNGSVEVAPSAGIAYAICDLVSSGATLEANGLKEVDVIYRSKACLIQRAEPLESTKQALVDKLLTRIQGVQQAAESKYIMLHAPKEKLEKITALLPGVENPTILPLASDTTRVAMHVVSQENLFWETMEQLKEAGASSILVLPIEKMMELEHHHHHH | soluble
11 | MTPDPLYMRRAIELAQNAEGFTSPNPLVGAVLVAHGRIIGEGYHHCAGMPHAEVIAINSVRDRALLRESTLYVSLEPCSHYGKTPPCAELILREGIPHVVVAMLDPFPSVSGRGIKMLRDAGVSVQVGLLAEEAEELNRHFLTAQRQHRPYVTLKWAESSDGFIDALRDDASTPPVRLSTPLTTRFVHHRRMIHDAILVGFRTALLDNPSLTVRHWYGRNPLRVVTDRHLALPRHLTLFDGSVPTLVFTEKEQPSGYPSAVSFVRIDPSRPPVEQMLAELHARGIQSLLVEGGACILRSFIDSGLYDDVRIEHSTIILNEGVRAPHLPSY | not soluble
12 | MTPIEAKFARLSTDHAPDQEVRQGNAGLDGLLRGDTLPGTPVDFSHGDVNTSAFAPTPGSLQEFVQGVERGGEQAYTEYRGAADLRLRVAAHLAEFTGAPVDGANELIITPGTQGALFLAIASSVTAGDKVAIVRPDYFANRKLVEFLGDEIVPVDMRHLERDSGAGLDLDQLEAAFKAGVRTFLFSNPNNPAGVVYSPEEIAQIADLARHYDATVIVDQLYSRLLYTGTRYTHLRALPQAPANVITIMGPSKTESLSGYRLGVAFGAAHLIDRMEKLQAIVSLRAPGYCQAVLRTWFQEPAGWMNERIAQHQAIRDDLIRVLRAVPGLAVRAPEAGSYLFPRLPRLAVGLHDFVRILRTQAGVTVTPGTEFSPHADDSIRLNFSQNHAAAVQAIERTAQLIERYRA | not soluble
13 | MTPPIAADYTAQAVSTDTIGYLHSTESGAGVDGPGMRFVFFVSGCQFRCLYCHNPDTWKLHNGRQVSVEQALSEVAPYARFLKFAGGVTISGGEPLMQHEFVGELFHEIKQRFGLHTALDTQGFLHERVSDAWFDDVDLVMLDIKHSDPEKYQALTGQPLQPTLDFALRLKRLRKKMWIRYVLVPGLTDGDADIEKLADFAASLGDVVERVEVLPFHQLGKDKWAQLGMEYQLNDTPIPTAEQAAHARALFASRGLKVTLEHHHHHH | soluble
14 | MTPSKTTLVERCYKYIMSNEKNWSPYTVINRKSWVKNYIEPFFKDTKLIDINPVLIQTFINTTFNNCTFSSSKIRYRFISSVLKEAYRLREINENPCDFVKLPLEHHHHHH | not soluble
15 | MTQKRTLLKYGILSLALAAPLSACAFDSLTVIGDSLSDTGNNGRWTWDSGQNKLYDEQLAERYGLELSPSSNGGSNYAAGGATATPELNPQDNTADQVRQWLAKTGGKADHNGLYIHWVGGNDLAAAIAQPTMAQQIAGNSATSAAAQVGLLLDAGAGLVVVPNVPDISATPMLLEAVITAGLGAAAPPALKAALDALAEGATPDFASRQQAIRKALLAAAATVSSNPFIQQLLVEQLLAGYEAAAGQASALTDYYNQMEEKGLEQHGGNIARADINGLFKEILANPQAFGLTNTVGMACPPGVSASACSSAMPGFNASQDYLFADHLHPGPQVHTIIAQYIQSIIAAPVQATYLNQSVQSMAQGSRTTLDSRYQQLRQGENPVGSLGMFGGYSGGYQRYDNNEADGNGNHNNLTVGVDYQLNEQVLLGGLIAGSLDKQHPDDNYRYDARGFQAAVFSHLRAGQAWLDSDLHFLSAKFSNIQRSITLGALRRVEEGETNGRLWGARLTSGYDFVMVPWLTTGPMLQYAWDYSHVNGYSEKLNTSTSMRFGDQNAHSQVGSAGWRLDLRHSIIHSWAQINYRRQFGDDTYVANGGLKSTALTFSRDGKTQDKNWVDIAIGADFPLSATVSAFAGLSQTAGLSDGNQTRYNVGFSARF | not soluble
16 | MTQQGAALQNYNNELVKCIEELCQKREELCRQIQQEEDEKQRLQNEVRQLTEKLARVNENLARKIASRNEFDRTIAETEAAYLKILESSQTLLSVLKREAGNLTKATASDQKSSGGKDS | not soluble
17 | MTRGPIFLNVGISYGLPRTKLPAAVSFRKWVAATLQGRIRKADLAIRIVDEKEGRALNYHYRNKDYATNVLSFPAQLPEPLPKALKIPLLGDIVMCAPVIAREAAEQGKSLSAHYAHLTVHGTLHLLGWNHEDHQEADAMEQLEREILANLGISDPYLEEY | soluble
18 | MTRNPVVAGMFYPAEYHELLEMIEYCYLNPRGPRELPSKRGKYTKPLGIVSPHAGYIYSGPVAAHGYKKISENISGEITAIILGPNHTGLGSGIATMKGTWKTPFGDMEIDNEFADRLWKECDILDMDENSHLREHSIEVQLPFLKHLEDLNIAKFKFVPISMMMQDYESCIDVGYVIAKVARELNRKIVIIASTDFSHYEPQEQASKKDAVVIKDILELNDEEIFTDVVTHTISMCGYGPVIAMVKAMKDLGARTSYLLYYSTSGDVTKDYSEVVGYASLLIKLEHHHHHH | soluble
19 | MTRRCELLVVGAGPAGMAAATQSAALGVDTLLLDEQATPGGQIYRAITTTALTRPDILGPDYWHGASLLEPLRASGAAYLSGATVWAVSRGAEAGDGGAFEVAYSVGGQADILRARHILLATGALERPFPIPGWTLPGVVTAGAAQILLKTAAIVPGEHAVLAGGGPLLYLLAWQYLNAGVRIERLLETTAPGGLARALPHALDFLRSPYLAKGLKLMRAVRAHVPITRGVRDLRAQGRERLESLSYRAGGRTHDMPARHLMLHQGVVPNLNLSRALGVDHQWNPTQACWQPRVDDWGATSVAGIGIAGDGADIGGAIAAEHRGRLAALQAAVALGRIDDARRDREARAPRRALARAMRGRAFFDVLYRPADAYRRPGDDTIVCRCEEITAGQIRATVRLGCSGPNQMKAFLRCGMGPCQGRLCGLTVSELIAHERGVPLPEVGYYRLRFPTKPVTLGELASLPQTEASRQAVVRLKKTALEHHHHHH | not soluble
